Experiment [1] concerns the target T1, alpha-synuclein sonicated preformed fibrils (soluble fibrils) (human, UniProt P37840 1-140). Put plainly: SPR, antibody immobilized (~5000 RU), serial dilutions of analyte.
Experiment [2] deals with T2, cyclo(CGGTKEQGG)-BSA (also: conjugated to BSA via maleimide-based coupling).
T2 construct: also called (2,2)-C-BSA; (2, 2) C-BSA
T2 peptide: cyclo(CGGTKEQGG)
Put plainly: indirect ELISA.

Experiment [3] addresses T3, cyclo(CGTKEQGGGG)-BSA (also: conjugated to BSA via maleimide-based coupling).
T3 construct: also called (1,4)-C-BSA; 1,4-C-BSA
T3 peptide: cyclo(CGTKEQGGGG)
Description: indirect ELISA.

In experiment [4] the target is T4, cyclo(CGGTKEQGGGG)-BSA (also: conjugated to BSA via maleimide-based coupling).
T4 construct: also called (2,4)-C-BSA; 2,4-C-BSA
T4 peptide: cyclo(CGGTKEQGGGG)
Put plainly: indirect ELISA. In general terms: An ELISA detects its analyte on a solid surface through an enzyme-linked reagent.

The target in experiment [5] is T1, alpha-synuclein sonicated preformed …. Put plainly: Millipore SMC, antibody-coated magnetic particles, detection with labeled 4D6.
In experiment [6] the target is T5, alpha-synuclein oligomers (UniProt P37840 1-140). The experiment is described as above.
Experiment [7] deals with T1, alpha-synuclein sonicated preformed …. Description: SPR, antibody immobilized, kinetic fitting, 1:1 model. (In SPR one partner is held on a chip, and binding of the other changes the refractive index at the surface.)
Experiment [8] concerns the target T5, alpha-synuclein oligomers. The description is as above.
Another experiment concerns the target T6, cyclo(CGGTKEQGGGG), free (cyclized via a head-to-tail (C-G) amide bond).
T6 construct: free cyclic peptide, not conjugated; also called (2,4)-C-FREE
T6 peptide: CGGTKEQGGGG
Put plainly: indirect ELISA.

Experiment [9] deals with T7, Bovine serum albumin (BSA) (bovine, UniProt P02769 25-607).
T7 construct: carrier protein alone as ELISA control
Description: indirect ELISA.

In experiment [10] the target is T4, cyclo(CGGTKEQGGGG)-BSA. Put plainly: indirect ELISA.
In experiment [11] the target is T8, HSA (human, UniProt P02768 25-609).
T8 construct: irrelevant antigen in ELISA; read as human serum albumin; also called Hum; SA; HAS
Description: indirect ELISA.

Experiment [12] has as its target T9, Human Transferrin (human, UniProt P02787 20-698).
T9 construct: irrelevant antigen in ELISA; also called HT
Description: indirect ELISA.

The target of experiment [13] is T1, alpha-synuclein sonicated preformed …. Description: cell-based or functional assay.
Experiment [14] concerns the target T5, alpha-synuclein oligomers. Put plainly: cell-based or functional assay.
The target of experiment [15] is T8, HSA. Put plainly: indirect ELISA. The source holds these as a separate data set.
Experiment [16] concerns the target T9, Human Transferrin. Put plainly: indirect ELISA. This is another data set of the same source.
Experiment [17] concerns the target T2, cyclo(CGGTKEQGG)-BSA. Put plainly: indirect ELISA.
Experiment [18] addresses T3, cyclo(CGTKEQGGGG)-BSA. Description: indirect ELISA.
The target of a further experiment is T10, Linear CGGTKEQGGGG-BSA (also: conjugated to BSA).
T10 construct: linear peptide-BSA screening antigen; also called (2,4)-L-BSA; 2,4-L-BSA
T10 peptide: CGGTKEQGGGG
Put plainly: indirect ELISA.

The target of a further experiment is T11, Linear CGGTKEQGG-BSA (also: conjugated to BSA).
T11 construct: linear peptide-BSA screening antigen; also called (2,2)-L-BSA; (2, 2) L-BSA
T11 peptide: CGGTKEQGG
Description: indirect ELISA.

The target in experiment [19] is T4, cyclo(CGGTKEQGGGG)-BSA. Description: indirect ELISA.
Another experiment concerns the target T12, cyclo(CGGGGEKTKGG), free (cyclized via a head-to-tail (C-G) amide bond).
T12 construct: free cyclic 4,2 construct; also called 4,2-Free-C
T12 peptide: CGGGGEKTKGG
Description: indirect ELISA.

A further experiment addresses T13, Linear CGGGEKTKGG-BSA (also: conjugated to BSA).
T13 construct: linear peptide-BSA screening antigen; also called ASPEP(3,2)-L-BSA
T13 peptide: CGGGEKTKGG
Put plainly: indirect ELISA.

In experiment [20] the target is T14, cyclo(CGGGGEKTKGG)-BSA (also: conjugated to BSA).
T14 construct: also called ASPEP(4,2)-C-BSA
T14 peptide: cyclo(CGGGGEKTKGG)
Put plainly: indirect ELISA.

The target in experiment [21] is T15, human complement factor H (HCFH) (human, UniProt P08603 19-1231).
T15 construct: unrelated protein in ELISA
Put plainly: indirect ELISA.

The target of experiment [22] is T7, Bovine serum albumin (BSA). Description: indirect ELISA. The source holds these as a separate data set.
Experiment [23] addresses T16, cyclo(CGGGEKTKGG)-BSA (also: conjugated to BSA via maleimide-based coupling).
T16 construct: also called ASPEP(3,2)-C-BSA
T16 peptide: cyclo(CGGGEKTKGG)
Put plainly: indirect ELISA.

For experiment [24], the target named is T9, Human Transferrin. Description: indirect ELISA. The source holds these as a separate data set.
In experiment [25] the target is alpha-synuclein in Lewy Body Disease (LBD/DLB) brain (human, UniProt P37840 1-140). Put plainly: dot blot signal on LBD brain extract over control brain extract.
For experiment [26], the target named is T14, cyclo(CGGGGEKTKGG)-BSA. Description: indirect ELISA.
Experiment [27] deals with T15, human complement factor H (HCFH). Put plainly: indirect ELISA. This is another data set of the same source.
Experiment [28] has as its target T7, Bovine serum albumin (BSA). Put plainly: indirect ELISA. This is another data set of the same source.
The target of experiment [29] is T16, cyclo(CGGGEKTKGG)-BSA. Put plainly: indirect ELISA.
In experiment [30] the target is T9, Human Transferrin. Description: indirect ELISA. The source holds these as a separate data set.
For experiment [31], the target named is T5, alpha-synuclein oligomers. Description: SPR, antibody immobilized, kinetic fitting, 1:1 model; antigen form: oligomers.
Experiment [32] addresses T1, alpha-synuclein sonicated preformed ….
The next experiment concerns the target T17, Linear CGTKEQGGGG-BSA (also: conjugated to BSA).
T17 construct: linear peptide-BSA screening antigen; also called (1,4)-L-BSA; 1,4-L-BSA
T17 peptide: CGTKEQGGGG
Description: indirect ELISA.

Experimental findings from patent US20230051538A1 (UNIVERSITY OF BRITISH COLUMBIA, published 2023) are described below.

Read-outs that look alike come from different tables or passages of the source. Where no end group is shown, it is not given here.

T9 sequence (P02787 20-698 limits assumed): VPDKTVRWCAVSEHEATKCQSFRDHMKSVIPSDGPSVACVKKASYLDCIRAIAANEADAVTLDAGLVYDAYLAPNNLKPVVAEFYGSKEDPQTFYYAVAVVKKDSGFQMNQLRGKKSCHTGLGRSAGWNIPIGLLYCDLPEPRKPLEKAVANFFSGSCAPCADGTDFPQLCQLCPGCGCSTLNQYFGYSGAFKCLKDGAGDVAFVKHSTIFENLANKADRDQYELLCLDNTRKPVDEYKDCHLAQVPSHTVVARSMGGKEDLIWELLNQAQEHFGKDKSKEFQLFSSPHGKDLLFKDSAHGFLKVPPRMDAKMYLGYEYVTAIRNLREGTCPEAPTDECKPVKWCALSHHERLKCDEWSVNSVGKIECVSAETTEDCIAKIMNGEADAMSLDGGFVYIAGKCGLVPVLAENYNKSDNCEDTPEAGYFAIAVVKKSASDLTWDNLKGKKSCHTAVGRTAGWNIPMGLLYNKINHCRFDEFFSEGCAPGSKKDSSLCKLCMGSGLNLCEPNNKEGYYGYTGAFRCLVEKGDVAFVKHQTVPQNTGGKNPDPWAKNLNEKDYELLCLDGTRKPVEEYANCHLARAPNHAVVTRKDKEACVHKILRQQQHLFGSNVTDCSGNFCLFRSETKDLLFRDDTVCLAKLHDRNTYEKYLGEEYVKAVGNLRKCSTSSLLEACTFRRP
T7 sequence (P02769 25-607 limits assumed): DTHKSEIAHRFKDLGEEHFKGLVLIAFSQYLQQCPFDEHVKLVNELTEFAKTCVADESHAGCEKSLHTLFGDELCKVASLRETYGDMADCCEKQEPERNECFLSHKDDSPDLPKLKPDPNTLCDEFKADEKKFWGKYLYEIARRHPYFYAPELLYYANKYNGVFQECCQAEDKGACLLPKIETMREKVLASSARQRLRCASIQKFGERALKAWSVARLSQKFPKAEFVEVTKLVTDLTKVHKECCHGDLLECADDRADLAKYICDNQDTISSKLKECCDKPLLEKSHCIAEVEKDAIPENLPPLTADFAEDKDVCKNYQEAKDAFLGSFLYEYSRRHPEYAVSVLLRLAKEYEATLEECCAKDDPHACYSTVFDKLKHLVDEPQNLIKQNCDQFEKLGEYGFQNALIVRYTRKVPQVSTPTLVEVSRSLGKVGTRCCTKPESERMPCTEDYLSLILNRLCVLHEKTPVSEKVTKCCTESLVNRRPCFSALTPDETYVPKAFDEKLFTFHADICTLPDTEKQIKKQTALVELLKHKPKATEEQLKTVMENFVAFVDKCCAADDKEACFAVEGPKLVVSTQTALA
T15 sequence (P08603 19-1231 limits assumed): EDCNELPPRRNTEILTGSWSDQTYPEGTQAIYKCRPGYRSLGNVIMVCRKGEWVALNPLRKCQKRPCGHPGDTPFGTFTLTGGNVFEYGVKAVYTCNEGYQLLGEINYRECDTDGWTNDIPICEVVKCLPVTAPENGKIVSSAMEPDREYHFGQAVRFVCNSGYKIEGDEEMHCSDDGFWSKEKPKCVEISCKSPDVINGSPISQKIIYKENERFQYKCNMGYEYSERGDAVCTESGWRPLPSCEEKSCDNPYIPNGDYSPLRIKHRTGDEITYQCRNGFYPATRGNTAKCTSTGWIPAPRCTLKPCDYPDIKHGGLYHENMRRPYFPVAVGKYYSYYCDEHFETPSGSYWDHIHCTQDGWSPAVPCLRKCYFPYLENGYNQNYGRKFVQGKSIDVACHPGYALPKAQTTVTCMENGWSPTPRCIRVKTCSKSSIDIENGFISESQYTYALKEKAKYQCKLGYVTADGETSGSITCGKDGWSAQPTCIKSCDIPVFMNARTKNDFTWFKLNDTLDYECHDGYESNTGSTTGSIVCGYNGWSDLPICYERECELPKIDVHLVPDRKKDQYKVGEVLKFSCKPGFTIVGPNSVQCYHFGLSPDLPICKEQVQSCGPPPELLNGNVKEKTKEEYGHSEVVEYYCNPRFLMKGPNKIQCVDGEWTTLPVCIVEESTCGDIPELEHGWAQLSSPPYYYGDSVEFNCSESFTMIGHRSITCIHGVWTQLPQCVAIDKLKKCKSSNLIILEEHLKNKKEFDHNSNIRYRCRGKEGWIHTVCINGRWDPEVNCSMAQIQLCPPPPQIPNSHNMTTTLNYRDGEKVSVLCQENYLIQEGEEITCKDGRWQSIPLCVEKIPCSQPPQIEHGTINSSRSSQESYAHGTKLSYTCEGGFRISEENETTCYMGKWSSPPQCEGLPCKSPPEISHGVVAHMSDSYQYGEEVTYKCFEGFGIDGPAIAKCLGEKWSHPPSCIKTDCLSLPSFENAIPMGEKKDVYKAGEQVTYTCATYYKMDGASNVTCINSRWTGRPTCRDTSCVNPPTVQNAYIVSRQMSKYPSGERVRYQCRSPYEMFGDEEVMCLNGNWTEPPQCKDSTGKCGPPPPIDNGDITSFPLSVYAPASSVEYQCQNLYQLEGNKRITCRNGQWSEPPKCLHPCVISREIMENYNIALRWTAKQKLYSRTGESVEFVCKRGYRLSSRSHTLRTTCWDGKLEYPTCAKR

B1: 12G1 (antibody, V domains shown)
VH: QIQLVQSGPELRKPGETVRISCKASGYTFTTAGMQWVQKMPGKGLKWIGWINTHSGVPKYAEDFKGRFAFSLETSASTAYLQISNLKNEDTATYFCARTSWAPYWGQGTLVTVSA
VL: not shown
Broadly, the Kd is the equilibrium constant for the complex coming apart. Lower therefore signals a tighter complex. A word on the koff: it is the rate constant with which the complex falls apart. Low values mean slow dissociation, high ones fast dissociation. The term kon denotes a measure of how fast the partners come together. Low readings indicate slower complex formation, high ones faster complex formation. For the molecule B1, the “fold binding affinity, soluble fibril relative to monomer” value in [1] is over 50 fold. The ELISA reading in the experiment with cyclo(CGGTKEQGG)-BSA [2] stood at 1.61; with cyclo(CGTKEQGGGG)-BSA [3], 2.07; in the experiment with cyclo(CGGTKEQGGGG)-BSA [4], 0.756; with cyclo(CGGTKEQGGGG), free it was 0.437; in experiment [9], 0.06; in the experiment with cyclo(CGGTKEQGGGG)-BSA [10], 1.01. Besides, the figures for the ELISA reading with HSA [11] and with Human Transferrin [12] were 0.052 and 0.071, respectively. Moreover, the “fold selectivity for fibrils versus monomers (from LLoQ)” value in experiment [5] worked out at 175000 fold. The “fold selectivity for oligomers versus monomers (from LLoQ)” value in experiment [6] was 35000 fold. In addition, the results for the Kd in experiment [7] and in experiment [8] were 20 nM and 1610 nM, respectively. Also, the koff in experiment [7] was found to be 5.62e-05 s⁻¹; in [8] it was 0.00155 s⁻¹. Moreover, the kon in experiment [7] stood at 2820 M⁻¹ s⁻¹; in experiment [8], 966 M⁻¹ s⁻¹. Moreover, in experiment [13], the “endogenous phosphorylated α-syn aggregates in neurons exposed to PFFs, antibody at 0.05 µM” value is 148 % of the control. For the same molecule, the “dopaminergic neuron survival, antibody at 250 nM” value in experiment [14] is 90.6 % of the control.

B2: 2E9 (antibody, V domains shown)
VH: EVKLLESGGGLVQPGGSLKLSCAASGFDFSRYWMNWVRQAPGKGLEWIGEINPHSSTINYAPSLKDKFIISRDNAKNTLYLQMSKVRSEDTALYYCGRGDYVDYWGLGTTLTVSS
VL: DIVMSQSPSSLAVSVGEKVTMSCKSSQSLLYSRNQKNYLAWYQQKPGQSPKLLIYWASTRESGVPDRFTGSGSGTDFTLTISSVKADDLAVYYCQQYYSYPRTFGGGTKLEIK
notes: also called test clone 2E9; test mAb 2E9
Consider B2, for which the ELISA reading with HSA [15] came to 0.044; with Human Transferrin [16], 0.054; with cyclo(CGGTKEQGG)-BSA [17], 0.047; with cyclo(CGTKEQGGGG)-BSA [18], 1.91; with Linear CGGTKEQGGGG-BSA it was 0.048; in the experiment with Linear CGGTKEQGG-BSA, 0.051. The same molecule registered an ELISA reading with cyclo(CGGTKEQGGGG)-BSA [19] of 0.055. The equilibrium dissociation constant (Kd) in experiment [7] worked out at 9 nM; in [8] it was 431 nM.

B3: 11B6 (antibody, V domains shown)
VH: QVQLQQSGAELMKPGASVKISCKATGYTFSSYWVEWVKLRPGHGLEWIGEIFPGSGSANYNEKFKGKATFTADTSSNTAYMQLSSLTSEDSAVYYCTSRWYPDYFEYWGQGTTLTVSS
VL: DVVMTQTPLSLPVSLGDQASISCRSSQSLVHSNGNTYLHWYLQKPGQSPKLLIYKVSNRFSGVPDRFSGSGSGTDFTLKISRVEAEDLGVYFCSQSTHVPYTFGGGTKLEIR
For B3, the ELISA reading was 1.27 with cyclo(CGGGGEKTKGG), free; 0.044 with Linear CGGGEKTKGG-BSA; 1.59 with cyclo(CGGGGEKTKGG)-BSA [20]; 0.042 in [21]; 0.041 in experiment [22]; 0.047 with cyclo(CGGGEKTKGG)-BSA [23]. The same molecule gave an ELISA reading with Human Transferrin [24] of 0.051. Moreover, the “dopaminergic neuron survival, antibody at 250 nM” value in [14] is 81 % of the control.

B4: 3C11 (antibody, V domains shown)
VH: EVQLQQSGAELVKPGASVKLSCTASGFNIKDTYIHWMKQRPEQGLEWIGRIDPANGNTKYDPEFQDKATIAADTSSNTAYLQLSSLTSEDTAVYYCSNWDYFDYWGQGTALTVSS
VL: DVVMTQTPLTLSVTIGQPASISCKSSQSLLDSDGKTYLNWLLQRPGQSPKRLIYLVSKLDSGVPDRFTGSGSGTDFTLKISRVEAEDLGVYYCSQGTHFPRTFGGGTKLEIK
As for B4, in experiment [25], the “Fold of reactivity LBD vs. Control (LBD / Control)” value came out at 26.6 fold. Further, the ELISA reading with cyclo(CGGGGEKTKGG)-BSA [26] was 0.567; in [27], 0.064; in [28], 0.052; with cyclo(CGGGEKTKGG)-BSA [29] it was 1.17; with Human Transferrin [30], 0.054. Besides, the “endogenous phosphorylated α-syn aggregates in neurons exposed to PFFs, antibody at 0.05 µM” value in [13] is 153 % of the control. In experiment [14], the “dopaminergic neuron survival, antibody at 50 nM” value is 89.6 % of the control.

B5: 12B12 (antibody, V domains shown)
VH: EVQLQQSGAELVKPGASVKLSCTASGFNIKDTYIHWVKQRPEQGLEWIGRIDPANGNTNYDPKFQDKATITADTSSNTAYLQFSSLTSEDTAVYYCSNWDYFDYWGQGTTLTVSS
VL: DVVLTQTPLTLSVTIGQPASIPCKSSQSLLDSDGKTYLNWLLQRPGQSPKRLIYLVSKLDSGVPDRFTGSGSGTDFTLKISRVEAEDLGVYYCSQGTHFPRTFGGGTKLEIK
For the molecule B5, the “fold binding affinity, soluble fibril relative to monomer” value in [1] was over 10 fold. Besides, the “fold binding affinity, soluble fibril relative to tetramer” value in experiment [1] was over 20 fold. Moreover, the off-rate constant (koff) in experiment [7] turned out to be 2.09e-05 s⁻¹; in experiment [8], 0.0013 s⁻¹. The association rate constant (kon) came out at 2530 M⁻¹ s⁻¹ in experiment [7] and 1320 M⁻¹ s⁻¹ in [8]. Further, the Kd in experiment [31] was found to be 985 nM; in experiment [32] it was 8 nM. Besides, in experiment [25], the “Fold of reactivity LBD vs. Control (LBD / Control)” value was found to be 20.3 fold. Also, the ELISA reading with cyclo(CGGGGEKTKGG)-BSA [26] was 0.851; in experiment [27], 0.059; in experiment [28], 0.055; in the experiment with cyclo(CGGGEKTKGG)-BSA [29] it was 1.28; with Human Transferrin [30], 0.045. Besides, the “endogenous phosphorylated α-syn aggregates in neurons exposed to PFFs, antibody at 0.05 µM” value in experiment [13] was 145 % of the control. In [14], the “dopaminergic neuron survival, antibody at 250 nM” value is 92.6 % of the control.

B6: 9D8 (antibody, V domains shown)
VH: QVTLKESGPGILQPSQTLSLTCSFSGFSLSTSGMGVGWIRQPSGKGLEWLAHIWWDGDKRYNPALRSRLTISKDTSSNQVFLKIASVDTADTATYYCTRIVVPNFLFTYWGQGTLVTVSA
VL: DVLMTQTPLSLPVSLGDQASISCRSSQSIVQSNGNTYLEWYLQKPGQSPNLLIYKVSNRFSGVPDRFSGSGSGTDFTLKISRVEAEDLGVYYCFQGSHVPFTFGSGTKLEIK
On to B6, for which the ELISA reading with cyclo(CGTKEQGGGG)-BSA [3] is 0.048; in the experiment with cyclo(CGGTKEQGGGG)-BSA [4], 0.726; with Linear CGTKEQGGGG-BSA it was 0.043; in the experiment with cyclo(CGGTKEQGGGG), free it was 0.227; in experiment [9] it was 0.055; with cyclo(CGGTKEQGGGG)-BSA [10], 1.18. The ELISA reading in the experiment with HSA [11] was found to be 0.054; with Human Transferrin [12], 0.06. Besides, the “fold selectivity for fibrils versus monomers (from LLoQ)” value in [5] amounted to 93300 fold. Also, the “fold selectivity for oligomers versus monomers (from LLoQ)” value in [6] was 9300 fold. In experiment [14], the “dopaminergic neuron survival, antibody at 250 nM” value is 96.5 % of the control.
